Laboratory results as given in paper PMC11485048.

Experiments:
[1] = molecular target: SpyTag-noro-VLP (norovirus-like particle of the capsid protein VP1 with a C-terminally fused SpyTag) (norovirus (genotype not stated)); experiment: covalent SpyCatcher/SpyTag conjugation read by SDS-PAGE densitometry; SpyCatcher-P domain conjugated on SpyTag-noro-VLP as in the first experiment; nonconjugated antigen removed by size-exclusion chromatography (HiPrep 16/60 Sephacryl S-500 HR); second immunization experiment
[2] = molecular target: SpyTag-noro-VLP (norovirus-like particle of the capsid protein VP1 with a C-terminally fused SpyTag) (norovirus (genotype not stated)); experiment: covalent SpyCatcher/SpyTag conjugation read by SDS-PAGE densitometry; SpyCatcher-antigen mixed with SpyTag-noro-VLP at 2:1 (P domain) or 4:1 (peptides) molar ratio, about 40 hours at +4 °C; unreacted SpyCatcher-antigen removed by dialysis through a 1000 kDa cut-off membrane; first immunization experiment

SpyCatcher-P domain fusion (furin P domain, residues 444-576) (from UniProt P09958 444-576)
conjugation efficiency (%) [1]: 5%
conjugation efficiency (%) [2]: 20%
